This experiment addresses T1, MBP-REN4 (Arabidopsis, UniProt O48716 1-465).
T1 construct: REN4, Arabidopsis, AT2G26490; full length REN4 CDS with stop codon (465 aa) in pDest-566; CDS with stop codon in pDest-566 (Addgene) implies an N-terminal MBP; that vector may also add a His6 tag (surmise); also called REN4 fused with MBP; source: E. coli, purified (amylose beads)
T1 sequence (looked up): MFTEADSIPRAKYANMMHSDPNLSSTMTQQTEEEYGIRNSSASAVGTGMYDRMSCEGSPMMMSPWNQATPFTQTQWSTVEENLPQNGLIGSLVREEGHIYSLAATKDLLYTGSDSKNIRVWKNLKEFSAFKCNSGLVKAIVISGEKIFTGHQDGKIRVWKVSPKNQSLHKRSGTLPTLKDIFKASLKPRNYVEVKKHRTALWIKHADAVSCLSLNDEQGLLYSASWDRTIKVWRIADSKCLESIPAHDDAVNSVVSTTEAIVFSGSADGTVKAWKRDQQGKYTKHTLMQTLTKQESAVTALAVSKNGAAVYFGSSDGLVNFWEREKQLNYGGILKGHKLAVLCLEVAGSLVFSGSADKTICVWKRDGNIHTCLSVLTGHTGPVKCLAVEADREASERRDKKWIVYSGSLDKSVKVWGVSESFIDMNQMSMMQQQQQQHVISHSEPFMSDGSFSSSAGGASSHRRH
Briefly: pull-down; MBP-REN4 on amylose agarose beads; about 1 ug GST-ROP1 preloaded with 1 mM GTP or GDP; binding buffer 50 mM Tris-HCl pH 7.5, 10 mM MgCl2, 1 mM DTT, 10 mg/ml BSA, 5 mM EDTA; 4 C, 1 h; washes with 1% Triton X-100; anti-GST and anti-MBP blots. The following applies: both partners purified.

The text below walks through data of PMC6030205, “The REN4 rheostat dynamically coordinates the apical and lateral domains of Arabidopsis pollen tubes” (Nature Communications, 2018).

B1: GST-CA-ROP1 (G15V), GTP-bound constitutively active form of ROP1 (natural protein)
chain: not shown
notes: ROP1, Arabidopsis; full length ROP1 CDS with stop codon, mutated G15V, in pDest15; Incubated with 1 mM GTP before the pull-down; source: E. coli, purified (glutathione-agarose); not shown: GST, N-terminal, kept
Turning to B1, the binding result was “binds”.
